The data set relates to Escherichia coli TOP10. The data set is described as follows: shrunken log2 fold change of peptide-encoding DNA abundance (4.5 h post-induction vs induction); higher = less antimicrobial activity (less host growth inhibition). As to conditions: time post-induction: 4.5 h; library: site-saturation at positions 5, 18, 19, 20.
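Further: peptides expressed intracellularly from a pBAD plasmid library in pooled LB shake-flask culture, induced with 0.3% L-arabinose, DNA abundance read by NGS, three biological replicates, DESeq2 with apeglm shrinkage.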

As for RRIRQRPPRLPRPRPRPSSSPRP, the “shrunken log2 fold change” value is -1.39. In the case of RRIRMRPPRLPRPRPRPDQEPRP it was 0.0392; in that of RRIRARPPRLPRPRPRPSGPPRP, 0.0223. On to RRIRWRPPRLPRPRPRPLLSPRP, for which the “shrunken log2 fold change” value amounted to 0.148. The same measure for RRIRNRPPRLPRPRPRPWISPRP: -0.0184. In the case of RRIRPRPPRLPRPRPRPGWHPRP it was 0.248. For the sequence RRIRKRPPRLPRPRPRPLQPPRP, the “shrunken log2 fold change” value came to 0.349.

For the sequence RRIRKRPPRLPRPRPRPPEKPRP, the “shrunken log2 fold change” value came to 0.00179.

As to RRIRNRPPRLPRPRPRPPHEPRP, the “shrunken log2 fold change” value is 0.256. As for RRIRTRPPRLPRPRPRPRSQPRP, the “shrunken log2 fold change” value is 1.58.

As for RRIRLRPPRLPRPRPRPSGDPRP, the “shrunken log2 fold change” value is 0.0305.

For the sequence RRIRNRPPRLPRPRPRPPYTPRP, the “shrunken log2 fold change” value is -0.876.

With RRIRMRPPRLPRPRPRPKIAPRP, the “shrunken log2 fold change” value was 0.244. In the case of RRIRERPPRLPRPRPRPMEEPRP, the “shrunken log2 fold change” value is 0.161.

For the sequence RRIRPRPPRLPRPRPRPLFPPRP, the “shrunken log2 fold change” value is -0.0198. The same measure for RRIRDRPPRLPRPRPRPYIKPRP: -0.565; for RRIRQRPPRLPRPRPRPNKRPRP: 0.0702.

Take RRIRDRPPRLPRPRPRPRRRPRP: the “shrunken log2 fold change” value stood at 0.736. For RRIRLRPPRLPRPRPRPFDHPRP, the “shrunken log2 fold change” value is -0.0264.

For the sequence RRIRKRPPRLPRPRPRPMVEPRP, the “shrunken log2 fold change” value was 0.0956. With RRIRMRPPRLPRPRPRPFICPRP, the “shrunken log2 fold change” value is 0.0468. Consider RRIRRRPPRLPRPRPRPMKWPRP, for which the “shrunken log2 fold change” value stood at 0.016.

For RRIRFRPPRLPRPRPRPWWDPRP, the “shrunken log2 fold change” value was -0.0745.

Turning to RRIRPRPPRLPRPRPRPQQKPRP, the “shrunken log2 fold change” value is 0.433. Regarding RRIRPRPPRLPRPRPRPCNSPRP, the “shrunken log2 fold change” value is -0.276. The same measure for RRIRGRPPRLPRPRPRPVVEPRP: 0.937; for RRIRLRPPRLPRPRPRPRARPRP: 0.619; for RRIRMRPPRLPRPRPRPSHCPRP: 0.0171. Turning to RRIRTRPPRLPRPRPRPMIPPRP, the “shrunken log2 fold change” value is -0.12.

As for RRIRQRPPRLPRPRPRPSGFPRP, the “shrunken log2 fold change” value is -0.102. As for RRIRLRPPRLPRPRPRPVAPPRP, the “shrunken log2 fold change” value stood at 0.474. For the sequence RRIRPRPPRLPRPRPRPSSFPRP, the “shrunken log2 fold change” value is -0.345. For RRIRYRPPRLPRPRPRPWFFPRP, the “shrunken log2 fold change” value was -0.841. In the case of RRIRTRPPRLPRPRPRPTHLPRP it was -0.0332; in that of RRIRSRPPRLPRPRPRPQEIPRP, -0.16; in that of RRIRRRPPRLPRPRPRPIYSPRP, -0.159.

As for RRIRGRPPRLPRPRPRPTIYPRP, the “shrunken log2 fold change” value was found to be 0.365. On to RRIRPRPPRLPRPRPRPSKIPRP, for which the “shrunken log2 fold change” value was -0.129. In the case of RRIRIRPPRLPRPRPRPPVCPRP, the “shrunken log2 fold change” value is 0.108.

With RRIRYRPPRLPRPRPRPCDFPRP, the “shrunken log2 fold change” value was -0.227. With RRIRARPPRLPRPRPRPSDIPRP, the “shrunken log2 fold change” value was -0.0794. As to RRIRIRPPRLPRPRPRPMIGPRP, the “shrunken log2 fold change” value was -0.477. Take RRIRRRPPRLPRPRPRPTDVPRP: the “shrunken log2 fold change” value is -0.0348. Turning to RRIRARPPRLPRPRPRPPNCPRP, the “shrunken log2 fold change” value was 0.354. In the case of RRIRMRPPRLPRPRPRPRHHPRP, the “shrunken log2 fold change” value stood at 0.415. Take RRIRSRPPRLPRPRPRPHTGPRP: the “shrunken log2 fold change” value was -0.703. Consider RRIRKRPPRLPRPRPRPAVYPRP, for which the “shrunken log2 fold change” value was -0.0285.

For RRIRNRPPRLPRPRPRPTMWPRP, the “shrunken log2 fold change” value is -0.0923. Consider RRIRERPPRLPRPRPRPCMKPRP, for which the “shrunken log2 fold change” value is -0.506. As for RRIRFRPPRLPRPRPRPAHMPRP, the “shrunken log2 fold change” value came out at 0.129. In the case of RRIRDRPPRLPRPRPRPMPCPRP, the “shrunken log2 fold change” value came out at 0.000981. As for RRIRQRPPRLPRPRPRPYRPPRP, the “shrunken log2 fold change” value is -0.103. In the case of RRIRNRPPRLPRPRPRPYHPPRP, the “shrunken log2 fold change” value was -0.135. As to RRIRVRPPRLPRPRPRPVSAPRP, the “shrunken log2 fold change” value was -0.141. In the case of RRIRVRPPRLPRPRPRPPLIPRP, the “shrunken log2 fold change” value came out at 1.02.

Take RRIRVRPPRLPRPRPRPSIQPRP: the “shrunken log2 fold change” value is -0.321. The same measure for RRIRSRPPRLPRPRPRPNFMPRP: -0.43; for RRIRLRPPRLPRPRPRPKQAPRP: 0.152; for RRIRTRPPRLPRPRPRPIIDPRP: -0.000898. Regarding RRIRQRPPRLPRPRPRPAQHPRP, the “shrunken log2 fold change” value is 0.189. Consider RRIRRRPPRLPRPRPRPVAPPRP, for which the “shrunken log2 fold change” value was determined as 0.436. RRIRARPPRLPRPRPRPYRKPRP: the “shrunken log2 fold change” value is -0.502. For RRIRFRPPRLPRPRPRPDASPRP, the “shrunken log2 fold change” value was found to be 0.146. Turning to RRIRVRPPRLPRPRPRPWDMPRP, the “shrunken log2 fold change” value is -0.184.

Consider RRIRPRPPRLPRPRPRPHTTPRP, for which the “shrunken log2 fold change” value stood at 0.0817. Take RRIRVRPPRLPRPRPRPWGQPRP: the “shrunken log2 fold change” value was -0.191. With RRIRFRPPRLPRPRPRPDSLPRP, the “shrunken log2 fold change” value is -0.204. The same measure for RRIRGRPPRLPRPRPRPKSGPRP: 0.707. As for RRIRTRPPRLPRPRPRPNIDPRP, the “shrunken log2 fold change” value is -0.32.

For RRIRWRPPRLPRPRPRPHGNPRP, the “shrunken log2 fold change” value amounted to 0.132. The same measure for RRIRARPPRLPRPRPRPSEVPRP: 0.258; for RRIRARPPRLPRPRPRPFEFPRP: 0.0786; for RRIRKRPPRLPRPRPRPFSTPRP: -0.187. In the case of RRIRQRPPRLPRPRPRPMSEPRP it was 0.0772; in that of RRIRSRPPRLPRPRPRPGQSPRP, 0.153; in that of RRIRHRPPRLPRPRPRPVMCPRP, -0.175. As for RRIRPRPPRLPRPRPRPDHVPRP, the “shrunken log2 fold change” value is -0.474. The same measure for RRIRHRPPRLPRPRPRPRDQPRP: -0.0907. In the case of RRIRVRPPRLPRPRPRPDKDPRP it was -0.337; in that of RRIRPRPPRLPRPRPRPRGFPRP, 0.341. As to RRIRLRPPRLPRPRPRPWMRPRP, the “shrunken log2 fold change” value was 0.892. For RRIRTRPPRLPRPRPRPKMCPRP, the “shrunken log2 fold change” value was 0.15. As for RRIRQRPPRLPRPRPRPYSEPRP, the “shrunken log2 fold change” value amounted to 0.0294. In the case of RRIRRRPPRLPRPRPRPIFPPRP, the “shrunken log2 fold change” value amounted to 0.69.

For RRIRWRPPRLPRPRPRPIQWPRP, the “shrunken log2 fold change” value came out at 0.25. The same measure for RRIRARPPRLPRPRPRPCCGPRP: 0.525.

As to RRIRVRPPRLPRPRPRPTVHPRP, the “shrunken log2 fold change” value is -0.0675. Turning to RRIRNRPPRLPRPRPRPKFEPRP, the “shrunken log2 fold change” value is 0.0146.

On to RRIRLRPPRLPRPRPRPKWAPRP, for which the “shrunken log2 fold change” value was -0.0391. RRIRNRPPRLPRPRPRPWYPPRP: the “shrunken log2 fold change” value was -0.215.

As for RRIRDRPPRLPRPRPRPFMDPRP, the “shrunken log2 fold change” value is -0.112. RRIRNRPPRLPRPRPRPQRVPRP: the “shrunken log2 fold change” value amounted to 0.399. On to RRIRSRPPRLPRPRPRPLDTPRP, for which the “shrunken log2 fold change” value is -0.157. RRIRFRPPRLPRPRPRPRGTPRP: the “shrunken log2 fold change” value was determined as 0.294. Consider RRIRVRPPRLPRPRPRPNIIPRP, for which the “shrunken log2 fold change” value was -0.303. Regarding RRIRFRPPRLPRPRPRPVMSPRP, the “shrunken log2 fold change” value is -0.153. RRIRDRPPRLPRPRPRPQIDPRP: the “shrunken log2 fold change” value is -0.0493.

For RRIRVRPPRLPRPRPRPPDIPRP, the “shrunken log2 fold change” value was found to be 0.248.

As for RRIRLRPPRLPRPRPRPDQCPRP, the “shrunken log2 fold change” value was -0.0609.

On to RRIRWRPPRLPRPRPRPYGMPRP, for which the “shrunken log2 fold change” value was -0.4. In the case of RRIRNRPPRLPRPRPRPRCEPRP it was 0.357; in that of RRIRFRPPRLPRPRPRPICWPRP, -0.134; in that of RRIRMRPPRLPRPRPRPMEEPRP, 2.45. In the case of RRIRRRPPRLPRPRPRPDDPPRP, the “shrunken log2 fold change” value is -0.0033.

In the case of RRIRQRPPRLPRPRPRPGLNPRP, the “shrunken log2 fold change” value is -0.129.

Regarding RRIRGRPPRLPRPRPRPPAQPRP, the “shrunken log2 fold change” value stood at 1.4. In the case of RRIRSRPPRLPRPRPRPVCFPRP it was 0.156; in that of RRIRYRPPRLPRPRPRPFFNPRP, -0.811; in that of RRIRARPPRLPRPRPRPVYCPRP, -0.175.

RRIRCRPPRLPRPRPRPCTGPRP: the “shrunken log2 fold change” value is -0.307.

RRIRERPPRLPRPRPRPHYGPRP: the “shrunken log2 fold change” value is -0.249. In the case of RRIRPRPPRLPRPRPRPHPHPRP, the “shrunken log2 fold change” value worked out at 0.0281. For RRIRGRPPRLPRPRPRPIAQPRP, the “shrunken log2 fold change” value was determined as 0.838. With RRIRHRPPRLPRPRPRPDMDPRP, the “shrunken log2 fold change” value stood at 0.0205.

Regarding RRIRQRPPRLPRPRPRPMLWPRP, the “shrunken log2 fold change” value is -0.00459. With RRIRTRPPRLPRPRPRPVDHPRP, the “shrunken log2 fold change” value was -0.216. As for RRIRHRPPRLPRPRPRPPIHPRP, the “shrunken log2 fold change” value was -0.639. In the case of RRIRPRPPRLPRPRPRPLQYPRP it was -0.478; in that of RRIRLRPPRLPRPRPRPHLPPRP, -0.353; in that of RRIRPRPPRLPRPRPRPLDIPRP, -0.408.

Consider RRIRKRPPRLPRPRPRPKLSPRP, for which the “shrunken log2 fold change” value was -0.0159. In the case of RRIRIRPPRLPRPRPRPLHNPRP, the “shrunken log2 fold change” value is -0.563. For the sequence RRIRHRPPRLPRPRPRPHMRPRP, the “shrunken log2 fold change” value is -0.00342.

Take RRIRARPPRLPRPRPRPVIHPRP: the “shrunken log2 fold change” value was -0.307. On to RRIRARPPRLPRPRPRPRFVPRP, for which the “shrunken log2 fold change” value is 0.457.

The record behind these values is the supplement of paper PMC9112550, “Optimization of the antimicrobial peptide Bac7 by deep mutational scanning” (BMC Biology, 2022).
